From publication PMC11432991

System: MexT-(His)6 (Pseudomonas poae PMA22)
Test: EMSA
Details: 10 mM MgCl2, 5.4-134.5 ng MexT, 1 nM probe, EMSA: 20 mM Tris-HCl pH 8, 150 mM KCl, 10 mM MgCl2, 10% glycerol, 2 mM beta-mercaptoethanol, 50 ug/mL BSA, 9 uL, 20 min room temperature, 5% PAGE in 0.5x TBE

Substance	binding signal (scale: fold of Pi affinity)	binding signal (fold higher affinity than Pa probe)
Pa promoter probe	0.33	–
Pi promoter probe	–	3
